Test [1] deals with T1, Fc-E-cadherin chimeric protein.
T1 construct: It was captured on immobilised protein A on a CM5 chip (about 3500 RU)
The test is described as follows: SPR (BIAcore X), Fc-E-cadherin captured on protein A, peptide as analyte, 3 mM CaCl2, fit to binding isotherm. As to the method: (§1) The binding of representative peptide modulating agents to Fc-E-cadherin chimeric protein in either the presence (3 mM CaCl₂) or absence of calcium was assessed using a BIAcore X™ Biosensor (Pharmacia Ltd., Sweden). Protein A was immobilized on the flow cells of a CM 5 sensor chip using a standard amine coupling method. The surfaces were activated with a 7 min injection of NHS/EDC, followed by a 7 min injection of protein A in 10 mM acetate pH 5.0 at a concentration of 50 ug/mL and blocked with a 7 min injection of 8 M ethanolamine, pH 8.2. […] Next, Fc-E-cadherin was injected over the protein A surface to be captured on the sensor chip.
(§2) To test compound binding to these surfaces, candidate modulating agents were injected in a three-fold dilution series over the Fc-E-cadherin-coated surfaces using six concentrations and each concentration was repeated twice.
A general note: Surface plasmon resonance follows binding to a sensor surface in real time, without labels.

For test [2] the target is unchanged. In words: SPR (BIAcore X), Fc-E-cadherin captured on protein A, peptide as analyte, 3 mM CaCl2, fit to binding isotherm; with Ca^++ (3 mM CaCl2). How it is done: as §1, §2
The target is the same in test [3]. The test is described as follows: SPR (BIAcore X), Fc-E-cadherin captured on protein A, peptide as analyte, no calcium, fit to binding isotherm. How it is done:
as §1, §2

Here are results for seven molecules from patent US20050129676A1 (ADHEREX TECHNOLOGIES, published 2005).

T1 sequence (P12830 155-709, change not shown): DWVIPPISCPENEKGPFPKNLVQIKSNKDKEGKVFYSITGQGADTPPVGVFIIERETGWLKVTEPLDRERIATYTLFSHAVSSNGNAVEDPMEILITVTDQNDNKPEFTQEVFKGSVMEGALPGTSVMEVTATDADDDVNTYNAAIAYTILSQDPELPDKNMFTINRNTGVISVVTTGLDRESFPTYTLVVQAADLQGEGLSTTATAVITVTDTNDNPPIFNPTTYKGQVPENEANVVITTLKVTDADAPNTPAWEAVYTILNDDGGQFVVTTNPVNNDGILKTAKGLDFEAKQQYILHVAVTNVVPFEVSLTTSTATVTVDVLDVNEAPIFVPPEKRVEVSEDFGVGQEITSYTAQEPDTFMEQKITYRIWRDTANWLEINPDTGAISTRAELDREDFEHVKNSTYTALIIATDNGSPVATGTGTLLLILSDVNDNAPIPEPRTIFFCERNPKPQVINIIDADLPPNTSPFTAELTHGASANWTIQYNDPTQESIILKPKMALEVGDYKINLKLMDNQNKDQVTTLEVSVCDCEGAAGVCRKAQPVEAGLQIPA

B1: H-DWVIPA-NH2 (peptide)
peptide: H-DWVIPA-NH2
notes: Linear synthetic peptide; analogue of H-DWVIPP-NH2
The term Kd denotes the constant that tells how readily two partners part at equilibrium. Consider B1, for which, in test [1], binding was characterised by a dissociation constant (Kd) of 59 µM.

B2: H-DWVIAP-NH2 (peptide)
peptide: H-DWVIAP-NH2
notes: as for B1
Molecule B2 came in with a dissociation constant (Kd) in test [1] of 17 µM.

B3: H-AWVIPP-NH2 (peptide)
peptide: H-AWVIPP-NH2
notes: as for B1
B3: in test [1], the Kd turned out to be 42 µM.

B4: H-DWVAPP-NH2 (peptide)
peptide: H-DWVAPP-NH2
notes: as for B1
In test [2], B4 registered a dissociation constant (Kd) of 21000 µM.

Regarding H-DWVIP-NH2 (Linear synthetic peptide) [H-DWVIP-NH2], the Kd in test [1] worked out at 36.1 µM; in test [3] it was 66 µM.

B5: H-PWVIPP-NH2 (peptide)
peptide: H-PWVIPP-NH2
notes: as for B1
In the case of B5, binding in test [1] was characterised by a dissociation constant (Kd) of 543 µM.

B6: H-DWVIPP-NH2 (peptide)
peptide: H-DWVIPP-NH2
notes: Linear synthetic peptide; also called ADH254
B6 gave a Kd in test [1] of 34 µM.
